Legend:
Experiment in all cases: pull-down binding Z-score (relative to library population); higher = stronger binding
Settings in all cases: RNA library: Library-2
[1] = test system: TO-N3-2 (biotin conjugate)
Method in brief: (§1)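 Heat-folded RNA library (1 μg, Cy5 or Cy3 end label, phosphate/NaCl/KCl buffer) was captured for 60 min at 25 °C on streptavidin beads displaying 100 pmol of biotin-conjugated small molecule, then washed three times. The bound fraction, eluted in hot SDS, was hybridised to a DNA barcode microarray at 55.5 °C for 20 h. Z-scores for binding were taken against the library mean and standard deviation after beads-only subtraction and trimmed averaging of replicate barcoded probes.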

[2] = test system: TO-3-N3 (biotin conjugate)
Method in brief: as §1

[3] = test system: TO-3-N3-2 (biotin conjugate)
Method in brief: as §1

TO-N3 (biotin conjugate) = test system: TO-N3 (biotin conjugate)
Method in brief: as §1

Row | Sequence | pull-down binding Z-score [1] | pull-down binding Z-score [2] | pull-down binding Z-score [3] | pull-down binding Z-score (TO-N3 (biotin conjugate))
1 | AUAUGUUUACACCACUAAUUCAACCUAUUGGUGCUUUGGACAUAU [DMSMaPseq_invitro_SARS-CoV-2_Motif_171] | -0.719 | -0.425 | -0.311 | -0.635
2 | GUUUGUGUAUCUACUAGUGGUAGAUGGGUACUUAAC | -1.05 | -0.677 | -0.279 | -0.726
3 | GUCAAAGUGACUAUUGAC [SHAPE_invitro_SARS-CoV-2_Motif_373] | -0.385 | -0.385 | -0.444 | -0.53
4 | CAGGUUUGUGAGAUACUUACCUG [U1snRNP5ss-14] | -0.792 | -0.473 | -0.404 | -0.661
5 | UGGUUUGUAACACAAAGGAAUUUUUAUGAACCA [SHAPE_invivo_SARS-CoV-2_Motif_466] | -0.605 | 0.139 | 0.046 | -0.0419
6 | GAUGUAAUUAUCUUGGCAAACCACGCGAACAAAUAGAUGGUUAUGUC [DMSMaPseq_invitro_SARS-CoV-2_Motif_374] | -0.828 | -0.928 | -0.326 | -1.03
7 | UAAUCAGACAAGGAACUGAUUA | -0.943 | -0.426 | -0.537 | -0.836
8 | UGCUCAAGAAGCUUAUGAGCA [SHAPE_invivo_SARS-CoV-2_Motif_229] | 0.0417 | -0.554 | 0.0729 | -0.253
9 | GAGUUUUUAGUGCAGUUGGUAACAUCUGUUACACACCAUCAAAACUU | 0.396 | -0.305 | -0.12 | 0.0323
10 | GCGCUGCCAGAAACUGGCUGCGC [mismatch-UU] | -0.689 | 0.141 | -0.405 | -0.231
11 | AAACUUGUGCCCUUUUGGUGAAGUUUUUAACGCCACCAGAUUUGCAUCUGUUU [SHAPE_invivo_SARS-CoV-2_Motif_425] | -0.751 | -1.12 | -0.449 | -1.3
12 | GUUCGUGUUGUUUUAGAUUUCAUCUAAACGAAC | -0.397 | -0.845 | -0.562 | -1.12
13 | AACUUUAAUGUU [SHAPE_invitro_SARS-CoV-2_Motif_263] | -1.33 | 0.212 | -0.765 | 0.00196
14 | GGGAGUCUUCGAGCUCUC [IAV_invivo_NP_5_Motif_24+IAV_invivo_NP_5_Motif_24] | -0.555 | -0.194 | -0.548 | -0.358
15 | UCAUACUGAAAGCGAACUUCAGUGUGA [IAV_invivo_NS1_NEP_8_Motif_9+IAV_invivo_NS1_NEP_8_Motif_9] | -1.16 | -0.0847 | -0.294 | -0.352
16 | ACAGAUCUUUACCAGGAGUUUUCUGU | -1.3 | -0.933 | -0.827 | -1.28
17 | UGCAAGAGAUGGUUGUGUUCCCUUGAACAUAAUACCUCUUACA [DMSMaPseq_invitro_SARS-CoV-2_Motif_219] | -1.18 | -0.678 | -0.0456 | -1.01
18 | AGGUAAGUAUGAUACUUACCUG [U1snRNP5ss-2] | -0.8 | -0.742 | -0.581 | -0.856
19 | GAUCUCUUGUAGAUC | -0.498 | 0.682 | 0.0231 | 0.342
20 | CCCAAGUCAUGAAGGAGAGGG [IAV_invivo_PA_3_Motif_13+IAV_invivo_PA_3_Motif_13] | 0.652 | 0.689 | 0.497 | 0.816
21 | CCUUGCACCUAAUAUGAUGGUAACAAACAAUACCUUCACACUCAAAGGCGGUGCACCAACAAAGGUUACUUUUGGUGAUGACACUGUGAUAGAAGUGCAAGG [SHAPE_invivo_SARS-CoV-2_Multi_7_ComplexLevel_1] | -0.526 | -0.657 | -0.454 | -0.857
22 | UCCUGUUUACCUUUUACAAUUAAUUGCCAGGA [SHAPE_invivo_SARS-CoV-2_Motif_533] | 0.272 | -0.84 | -0.351 | -1.01
23 | GCACACUAGAACCAGAAUAUUUCAAUUCAGUGUGU | -1.18 | -0.957 | -0.413 | -1.2
24 | AAUGAGUUUUACGCAUAUUUGCGUAAACAUU | -1.23 | -0.889 | -0.413 | -1.36
25 | UAGUGCAAAGAAUAGAGCUCGCACCGUAGCUGGUGUCUCUAUCUGUAGUACUA | 0.18 | -0.167 | 0.188 | -0.0718
26 | AACCAUACAGGUGUUGUUGGAGAAGGUU [DMSMaPseq_invitro_SARS-CoV-2_Motif_31] | -0.444 | 0.0755 | 0.125 | -0.0691
27 | AUGAACCACAAAUCAU [DMSMaPseq_invitro_SARS-CoV-2_Motif_444] | -1.03 | 0.463 | -0.31 | 0.254

Row | Sequence | pull-down binding Z-score [1] | pull-down binding Z-score [2] | pull-down binding Z-score [3] | pull-down binding Z-score (TO-N3 (biotin conjugate))
28 | GGGCUGUGACCACUGAAGUGGCAUUUGGCCU [IAV_invivo_M1_M2_7_Motif_9+IAV_invivo_M1_M2_7_Motif_9] | 0.272 | -0.255 | -0.255 | -0.176
29 | ACCUGCUCAGUAUGAACUUAAGCAUGGU | -0.0122 | -0.339 | -0.184 | -0.561
30 | CCACGCACAUUGCUAACUAAGGGCACACUAGAACCAGAAUAUUUCAAUUCAGUGUGUAGACUUAUGAAAACUAUAGGUCCAGACAUGUUCCUCGGAACUUGUCGG | 0.139 | -0.478 | -0.0669 | -0.189
31 | GUCUCUGAAGAAGUAGUGGAAAAUCCUACCAUACAGAAAGAC | 0.831 | -0.0809 | 0.0814 | 0.289
32 | UCCAAGAACUUGGA | -1.73 | -0.941 | -0.88 | -1.35
33 | GCUGUGAGUUGGAUACUUACCUG [U1snRNP5ss-13] | 1.38 | 0.0032 | 0.194 | 0.947
34 | GUUUACAACAGUAGAC | -1.28 | 0.0879 | -0.155 | -0.136
35 | AAACCUAAUGAAUUAUCUAGAGUAUUAGGUUU [SHAPE_invitro_SARS-CoV-2_Motif_132] | -1.06 | -0.888 | -0.157 | -0.985
36 | AUCUACAAUGAU [DMSMaPseq_invitro_SARS-CoV-2_Motif_243] | -1.55 | -0.553 | -0.742 | -0.892
37 | GGCUUCAUCAAACAAUAUGGUGAUUGCC | -1.01 | -0.151 | -0.331 | -0.484
38 | GGGAGAGACGAACAGUCGAUUGCC [IAV_invivo_PB2_1_Motif_17+IAV_invivo_PB2_1_Motif_17] | 0.839 | -0.434 | -0.268 | 0.0259
39 | GUGCCCAAAAUACGUCAGGAGUGC [IAV_invivo_HA_4_Motif_13+IAV_invivo_HA_4_Motif_13] | 0.402 | -0.325 | 0.129 | 0.0361
40 | AUUACUGCAAAAUGGUAUGAAUGGACGUACCAUAUUGGGUAGU [DMSMaPseq_invitro_SARS-CoV-2_Motif_194] | -0.151 | 0.151 | 0.144 | 0.0935
41 | CUGUCACUAAG | -0.584 | -0.404 | -0.0755 | -0.36
42 | GCUUUGUCCAAAAUGCCCUUAAUGGGAACGGGGAUCCAAAUAACAUGGACAAAGC [IAV_invivo_M1_M2_7_Motif_6+IAV_invivo_M1_M2_7_Motif_6] | -0.236 | 0.0624 | 0.353 | -0.155
43 | GAUGGCUUUCCUUGAGGAAUCCCAUC [IAV_invivo_PB1_2_Motif_6+IAV_invivo_PB1_2_Motif_6] | -0.986 | -1.04 | -0.719 | -1.41
44 | CUACAAAGCAACCAUGAUCUGUAUUGUCAAGUCCAUGGUAAUGCACAUGUAG | 0.374 | -0.654 | -0.092 | -0.227
45 | GUUUUUCUGUUUGGAACUUUAAUUUUAGCCAUGGCAGAUUCCAACGGUACUAUUACCGUUGAAGAGCUUAAAAAGCUCCUUGAAC | -0.41 | -0.86 | -0.23 | -0.856
46 | UGAUGUUUGUCA | -1.2 | -0.46 | -0.778 | -0.762
47 | GCAUGAUGUUUCAUCUGC | -0.496 | 1.18 | 0.0512 | 0.951
48 | ACAAUGGCAGACCUCGUCUAUGCUUUAAGGCAUUUUGAUGAAGGUAAUUGU | -1.12 | -0.812 | -0.242 | -0.93
49 | CCUAUACUGUUACUAGAUCAGGCAUUAGUGUCUGAUGUUGGUGAUAGUGCGG [DMSMaPseq_invitro_SARS-CoV-2_Motif_147] | -0.184 | 0.0141 | 0.0824 | 0.0062
50 | AAAUAAGUACGAUACUUACCUG [U1snRNP5ss-3] | 0.324 | -0.109 | 0.279 | -0.0474
51 | GUUUAAGGAAGGUGUAGAGUUUCUUAGAGAC | 0.726 | -0.375 | 0.179 | 0.119
52 | CAUGAAGUGUGAUCAUUGUGGUGAAACUUCAUG | -0.279 | -0.496 | -0.154 | -0.605
53 | CUUCACAUAUGUAUUGUUCUUUUUACCCUCCAGAUGAGGAUGAAGAAGAAGGUGAUUGUGAAG | -1.19 | -0.494 | -0.0402 | -0.606
54 | GUCUGAUAAUGGACCCCAAAAUCAGCGAAAUGCACCCCGCAUUACGUUUGGUGGACCCUCAGAU | -0.0686 | -0.49 | -0.237 | -0.521
